{
  "source": "the DeepSol protein solubility set",
  "data": [
    {"experiment": "soluble on expression in E. coli; label from the status in PepcDB or PDB records", "values": [
      {"sequence": "MVGNTFGRIFRVTTCGESYAGAFRKNLQIPKELFGGLIAIVDGVPPGIKLTADFVQEELDKRRPGKTPLDTPRKERDKVYIFSGVMEDDITTGAPVGMIIPNDVIEDEHINKHKSYKEVVRPGQAGYTFFKKYGQFADNIGAGRASGRETAARVAAGAVAKAVLDTMGIDVIAFVTEIHGIKAQENITYEMAKANYRKNEINCPDLEKAKEMIEELKRIKEEGDSVGGVVEIIARGVPAGLGEPVFDKLQATLAHALMSIGAIKGIEFGEGFGHTKLKGSESNDVPYYDEASGRVRFKTNRAGGILGGISNGEDIRIRVAVKPTPTISIPQKTVNMYTLENVEVEFNTRNDPSICPRIYPVCEAMVRIALLDALYIAKGYRAISSNIDPRWDRL", "soluble on expression in E. coli": "not soluble"},
      {"sequence": "MADETELKRLYWHSRRGMLELDVLLVPFVQEVYPGLDAEDQARFRKLLECEDQDMFGWFMQRGEPEDADLRRMVRMILDRVQPD", "soluble on expression in E. coli": "not soluble"},
      {"sequence": "MGLVQTNDQQLFIGVDGGGSKCRATIYTADGTVLGTGVAGRANPLHGLAQTFESIEASAHQALLDAGMKATDSHLLVAGLGLAGVNVPRLYQDVVNWQHPFAAMYVTTDLHTACIGAHRGADGAVIITGTGSCGYAHVGDASLSIGGHGFALGDKGSGAWLGLKAAEHVLLALDGFATPTALTEMLLSHLGVKDALGIVEHLAGKSSSCYAQLARNVLDCANAGDQVAIAIVQEGADYISEMARKLFMLNPVRFSMIGGLAEPLQAWLGSDVVAKISETLAPPELGAMYYAQQQFNSATVLEHHHHHH", "soluble on expression in E. coli": "soluble"},
      {"sequence": "QADAGPDKELTLPVDSTTLDGSKSSDDQKIISYLWEKTQGPDGVQLENANSSVATVTGLQVGTYVFTLTVKDERNLQSQSSVNVIVKEE", "soluble on expression in E. coli": "soluble"},
      {"sequence": "MSYSPSLKEIIAILQKYTSKNYQSNCKTRPDGKLELSLNGVFEEIVKTPGKTRYVTHKQLDQKLKDFKQDLMVELHDTFATKTDLKESEARINQKLEALIQIVMVQGEQIKVHGEQINKLTQAVEKQGEKIEAQGQQIQKVNETLNFVVESLGSIHKRLDSMEGRLDSMENRLDKLESK", "soluble on expression in E. coli": "soluble"},
      {"sequence": "MQLTAKASLTNALLISICTPDFKGDEATESLAELARLVTTLGFKVVGTQSQKQSSTKKVNVLGLGKLAEIAHLTGNQGEVEDMEEVEDLSVGEQTDDVEFMVNSSDIPSDNLPFACADVVVFDCDLSPSQLRNVENQLGVEVFDRTGIIIEIFSRHARTKTAKLQVEIARLNYVAPRLRETSCGDKERQMGKGAGETTLELNRRAVRDQLAELKRELVSVQHEMKGRRTQRSELFCVALVGYTNAGKSSMMRAITGSDVEGENKLFATLDTTVRALFPITQPRILVSDTVGFIKKLPHDLVASFHSTLAEAQDASLLLYVVDASDPSFRAQLDVVHEVLDEVGVEDSKKLLVLNKSDQLSIEQQQALMEEFPNAMMTSARNPADVSKLHKYIVGIAQEEMIEEEIIVPYTANGIIGEIRSRMSVTKEEYENSHIKLTVRSNAIDLARLKKRMLSLLEHHHHHH", "soluble on expression in E. coli": "not soluble"},
      {"sequence": "MYLVTGATGQLGLRVVRRCITLGLPVRAFVRLTSQYELLKEWGAEIFIGDLQQPRDIQAAMKGVEAVICCHGSQLLSRAIQAIDYRATLDVIQAAQEQGVRYLTLISPLAVTGDRQQSPFLKAKYEVEQVLISSGLNYSIFRCPTLMSSLLPLAERFQQTGVYIVLGDPQHRLQLLSPDDLARCILIASQASQPAIFSMAHPEVFTRQEIADRLGRFFNRRPFVMTVPLSVIDGARQFLGVMSRDLDASLGTLRTLLAYESLCPASEIERAQTYFQLSFESLETFLGRYFLEHHHHHH", "soluble on expression in E. coli": "not soluble"},
      {"sequence": "GSIPGLERALQQYTLEPSEKPFDLKSVPLATAPLAEQRTESTPVTAAKQPEKVAATRQEIFQEQLAAVPEFQGLGPLFKSSPEPVALTESETEYVIRCTKHTFTDHMVFQFDCTNTLNDQTLENVTVQMEPSEAYEVLCYVPARSLPYNQPGTCYTLVALPKEDPTAVACTFSCVMKFTVKDCDPTTGEADDEGYEDEYVLEDLEVTIADHIQKVMKLNFEAAWDEVGDEFQKEETFTLSTIKTLEEAVGNIVKFLGMHPCERSDKVPDNKNTHTLLLAGVFRGGHDILVRSRLLLLDTVTMQVTARSSEELPVDIVLASVG", "soluble on expression in E. coli": "soluble"},
      {"sequence": "MGSDKIHHHHHHMAQNIYDQPDFFAGYSQLGRSIEGLDGAAEWPALRAMLPEVGGLRIVDLGCGFGWFCRWAHEHGASYVLGLDLSEKMLARARAAGPDTGITYERADLDKLHLPQDSFDLAYSSLALHYVEDVARLFRTVHQALSPGGHFVFSTEHPIYMAPARPGWAIDAEGRRTWPIDRYLVEGPRKTDWLAKGVVKHHRTVGTTLNALIRSGFAIEHVEEFCPTDAQITARPELAEELDRPMFLLVSARR", "soluble on expression in E. coli": "not soluble"},
      {"sequence": "MVTQNKKILIITGSFGNGHMQVTQSIVNQLNEMNLNHLSVIQHDLFMEAHPIMTSICKKWYINSFKYFRNTYKRFYYSRPNELDKCFYKYYGLNKLINLLIKEKPDLILLTFPTPVMSVLTEQFNINIPIATVMTDYRMHKNWITPYSQRYYVATKDTKDDFIEAGVPASYIKVTGIPIADKFEESIDKEEWLSQQHLDPSKPTILMSAGAFGVSKGFDYMINNILEKSPNSQVVMICGRSKELKRSLKAKFKDNPSVKILGYTNHMNEWMASSQLMITKPGGITISEGLSRCIPMIFLNPAPGQELENAYYFESKGFGKIADTPNEAIDIVSDLTNNEETLKVMSSKMLESKVGYSTRKICKDLLDLIGHSSQPDEIYGKVPLYARFFVKLEHHHHHH", "soluble on expression in E. coli": "soluble"},
      {"sequence": "MLLQTLEERLATLRQRCAPLAQHATLSARFDRHLFRTRSTLLQGYLEEAGANLVALRQAVKHEQLPQVAWLAEHLASQLEAISRETAAWSLRQWDAAAPGLGRWQRRRIQHQEFERRLLAMTQERKIRLAQATGLVEQQTLQKEVEIYEGRLARCRHALEKIENVLARLTR", "soluble on expression in E. coli": "not soluble"},
      {"sequence": "VLEQAVYNARVMDIRDIEKESQEQAPEVEMVSELGSDVVVLDIRSAEEEDEKPLELDGVEVTHIPFFKLATKFGDLDQSKEYLLYCERGVMSRLQALLLIENGYKNVKVYRP", "soluble on expression in E. coli": "not soluble"},
      {"sequence": "MEDIGADSDDFFSLAEELPQNEDLLESEDDAPIIKLINAMLGEAIKEGASDIHIETFEKTLSIRFRVDGVLREVLAPSRKLSSLLVSRVKVMAKLDIAEKRVPQDGRISLRIGGRAVDVRVSTMPSSHGERVVMRLLDKNATRLDLHSLGMTAHNHDNFRRLIKRPHGIILVTGPTGSGKSTTLYAGLQELNSSERNILTVEDPIEFDIDGIGQTQVNPRVDMTFARGLRAILRQDPDVVMVGEIRDLETAQIAVQASLTGHLVMSTLHTNTAVGAVTRLRDMGIEPFLISSSLLGVLAQRLVRTLCPDCKEPYEADKEQRKLFDSKKKEPLILYRATGCPKCNHKGYRGRTGIHELLLVDDALQELIHSEAGEQAMEKHIRATTPSIRDDGLDKVRQGITSLEEVMRGSRSHHHHHH", "soluble on expression in E. coli": "soluble"},
      {"sequence": "TEETNVLVLCAGGGTSGLLANALNKAAEEYGAPVKAAAGSYGAHREILDQYQLVILAPQVASNYEDMKAETDKLGIKLAKTEGAQYIGLTRDGKGALAFVEEQFKD", "soluble on expression in E. coli": "not soluble"},
      {"sequence": "MEELFCIGCGAQIQTEDKEKAGFTPASSIKKAEETGELYCQRCFRLRHYNEIVDVHITDDEFLKLLYEVGDSDALVVNVVDIFDFNGSIIPGLSRFVSGNDVLLVGNKKDILPKSVKDGKVTQWLTERAHEEGMRPVDVMLTSAQNHHAIKELIQRIEALRKGRDVYVVGVTNVGKSTLINAIIKEITGDKDVITTSRFPGTTLDKIEIPLDDGSYIFDTPGIIHRHQMAHYLSAKDLKYVSPKKEIKPKTYQLNAGQTLFLGGLGRFDFIDGDKQGFTAFFDNNLKLHRTKLDGADAFYDKHVGSLLMPPGPKELADFPKLVRHEFTIKDKTDVVFSGLGWIRVQGKTDQPTIVAAWAPEGVGVVVRKAIILEHHHHHH", "soluble on expression in E. coli": "soluble"},
      {"sequence": "GAKPNQKVIAEILKYPSPGKNPEAKVVKVLGDLDDPSIDLPSVIVKHDLPEPGEFPEEVIREANAIPARVRKKDLVGRKDLRDKVIVTIDGEDAKDFDDAISVEKLPNGNYLLGVHIADVSHYVKEGSALDQEAFKRGTSVYLIDTVIPMLPFRLSNGICSLVEGKDRLTMSVEMEIDRDGRVVRYDVYPSVIKSKKRMIYERVNEFLEDPSSMKEYEPFKDLIYNAVELAEILREARRKRGAILDIESDEVKVILDENGQVVDIVPRKRGIAEKLIEEFMIRANETVAEIFDHAGLPFMYRVHEEPDPETIFQLKNYLEAMGIRAKFSHKIHPGMLQKLLEKVKDHPLRSSVERLLVRSMKRAMY", "soluble on expression in E. coli": "soluble"},
      {"sequence": "ISDTLNIQRKKIILYAPTFRDYNMQSIQLPFTEEQLIHQLKEEYVLFVKLHPAIQNNIDIKYSSDYIKDVSNYALFDLLMAADILITDYSSVPFEFSILNKPILFYTYDLKLYQQKRGLVDNYLSIIPGRACYDSESLINEIQTPFNYSKIKVFSDRWNKYSDGNSSQNLLNFIEN", "soluble on expression in E. coli": "not soluble"},
      {"sequence": "PIDWNPQRIAVSGVSGVGKTTLCKQIAALSGFPRVELDSLYHGENWVPRETFVAEVQDFIKGPQWVMELQYRQVRPLIVERADTVLWLDYSTPRQMFRLIKRTIPRSLFKTKL", "soluble on expression in E. coli": "not soluble"},
      {"sequence": "MILIGDSGSTKTDWCIAKEGKSLGRFQTSGINPFQQDRNEIDTALRSEVLPAIGQKASSIRAVYFYGAGCTPAKAPMLNEALDSMLPHCDRIEVAGDMLGAARALCGDSEGIACILGTGSNSCLFDGREIKANVSPLGYILGDEGSGAVLGRLFIGSLLKGQMPEGLCEAFLQEYGLTSADIIESVYRKPFPNRFLAGFSPFIAQHLDIPAVYSLVQNSFDDFLVRNVLRYNRPDLPLHFIGSVAFHYREVLSSVIKKRGLTLGSVLQSPMEGLIQYHHNNHVLEHHHHHH", "soluble on expression in E. coli": "soluble"},
      {"sequence": "MLIRQVTMEDLEDIIRIENDNFSAEEAATSQALKERIEVIADTFLVAEQDGQIAGYVEGPVINSRYLTDDLFHKVKPNQEKSGYIAVTSLSVDKAFQKQGVGTTLLAALKDLTVAQNRLGIHLTCHDYLISYYEMNGFSNEGLSESTHGGTVWYNMIWENPKI", "soluble on expression in E. coli": "not soluble"},
      {"sequence": "MSLINLVEKEWQEHQKIVQASEILKGQIAKVGELLCECLKKGGKILICGNGGSAADAQHFAAELSGRYKKERKALAGIALTTDTSALSAIGNDYGFEFVFSRQVEALGNEKDVLIGISTSGKSPNVLEALKKAKELNMLCLGLSGKGGGMMNKLCDHNLVVPSDDTARIQEMHILIIHTLCQIIDESF", "soluble on expression in E. coli": "soluble"},
      {"sequence": "MEFSIKQSPLSVQSVVKCIKMKQAPEILGSANGKTPSCEVNRECSVFLSKAQLSSSLQEGVMQKFNGHDALPFIPADKLKDLTSRVFNGEPGAHDAKLRFESQEMKGIGTPPNTTPIKNGSPEIKLKITKTYMNGKPLFESSICGDSAADVSQSEENGQKPENKARRNRKRSIKYDSLLEQGLVEAALVSKISSPSDKKIPAKKESCPNTGRDKDHLLKYNVGDLVWSKVSGYPWWPCMVSADPLLHSYTKLKGQKKSARQYHVQFFGDAPERAWIFEKSLVAFEGEGQFEKLCQESAKQAPTKAEKIKLLKPISGKLRAQWEMGIVQAEEAASMSVEERKAKFTFLYVGDQLHLNPQVAKEAGIAAESLGEMAESSGVSEEAAENPKSVREECIPMKRRRRAKLCSSAETLESHPDIGKSTPQKTAEADPRRGVGSPPGRKKTTVSMPRSRKGDAASQFLVFCQKHRDEVVAEHPDASGEEIEELLRSQWSLLSEKQRARYNTKFALVAPVQAEEDSGNVNGKKRNHTKRIQDPTEDAEAEDTPRKRLRTDKHSLRKRDTITDKTARTSSYKAMEAASSLKSQAATKNLSDACKPLKKRNRASTAASSALGFSKSSSPSASLTENELLWEPTPVKLDLNPAALYCT", "soluble on expression in E. coli": "soluble"}
    ]}
  ]
}
